Measurements: publication PMC4264193, “Structures of the Inducer-Binding Domain of Pentachlorophenol-Degrading Gene Regulator PcpR from Sphingobium chlorophenolicum” (International Journal of Molecular Sciences, 2014)

Target: the molecule itself
Assay: SEC-MALS; 200 ug of PcpR loaded on a BioSep-SEC-S 2000 column, eluted isocratically at 0.5 mL/min; UV, refractometer and Dawn EOS light scattering detectors; Zimm fit; calculated mass ~50 kD

B1: PcpR inducer-binding domain (residues from 85 to the C-terminus of PcpR) (domain or fragment, Sphingobium chlorophenolicum L-1, UniProt P52679 85-307, looked up)
chain: RSELRFDPGTSNRNFRIAASDFGQALMLPRLYATLEETAPQVRVTGVNLRHGPLVEELESGSIDIAFGGFPTLSAGIKTQTLFREEYVCVMRQSHPALTHGLDLEAFRQCRHIIVTAHEFNHVHEQVEARLLELLPPESIRFTTENFLVSAVIAEETDVILTIPSRLARWFANRGGLTIFPVPIELPSIEVKQYWHERYDKDPGNIWLRRVIAKIGFQNPPAE
notes: PcpR, LysR-type transcription factor of Sphingobium chlorophenolicum L-1; Cloned into pET30-LIC and expressed as a C-terminal HIS6X fusion protein; also called PcpR IBD; source: E. coli BL21(DE3), purified (nickel-nitrilotriacetate column, Mono Q anion exchange)
B1 was tested, and the “stoichiometry N” value was 2.
